Data as given in patent US20060134087A1, “ITI-D1 Kunitz domain mutants as hNE inhibitors” (Dyax Corp., priority 1988, published 2006).
Read-outs that look alike come from different tables or passages of the source. Ends that are not written are not given here.

Legend:
[1] = biological target: T1, human neutrophil elastase (hNE) (Homo sapiens, UniProt P08246); conditions: ALBR83a,b, ODOM90, cited from earlier work
T1 sequence (P08246 30-267): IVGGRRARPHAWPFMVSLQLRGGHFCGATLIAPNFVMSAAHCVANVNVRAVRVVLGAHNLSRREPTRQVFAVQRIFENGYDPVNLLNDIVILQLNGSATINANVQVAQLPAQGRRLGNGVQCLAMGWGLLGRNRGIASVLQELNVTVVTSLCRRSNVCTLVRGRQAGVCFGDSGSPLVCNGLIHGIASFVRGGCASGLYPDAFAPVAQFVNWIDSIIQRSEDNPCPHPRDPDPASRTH

trypsin = conditions: literature; cited from earlier work
plasmin = plasmin (Homo sapiens, UniProt P00747); conditions: literature; cited from earlier work
Sequence of plasmin (P00747 581-810 limits assumed, species assumed): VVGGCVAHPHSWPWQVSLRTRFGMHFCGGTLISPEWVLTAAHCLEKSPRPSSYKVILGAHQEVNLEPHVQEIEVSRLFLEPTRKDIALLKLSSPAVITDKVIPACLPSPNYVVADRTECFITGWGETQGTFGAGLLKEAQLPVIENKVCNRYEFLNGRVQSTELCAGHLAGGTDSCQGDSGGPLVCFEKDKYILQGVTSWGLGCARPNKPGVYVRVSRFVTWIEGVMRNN
Sequence of plasmin (P00747 97-580 partner limits assumed, species assumed): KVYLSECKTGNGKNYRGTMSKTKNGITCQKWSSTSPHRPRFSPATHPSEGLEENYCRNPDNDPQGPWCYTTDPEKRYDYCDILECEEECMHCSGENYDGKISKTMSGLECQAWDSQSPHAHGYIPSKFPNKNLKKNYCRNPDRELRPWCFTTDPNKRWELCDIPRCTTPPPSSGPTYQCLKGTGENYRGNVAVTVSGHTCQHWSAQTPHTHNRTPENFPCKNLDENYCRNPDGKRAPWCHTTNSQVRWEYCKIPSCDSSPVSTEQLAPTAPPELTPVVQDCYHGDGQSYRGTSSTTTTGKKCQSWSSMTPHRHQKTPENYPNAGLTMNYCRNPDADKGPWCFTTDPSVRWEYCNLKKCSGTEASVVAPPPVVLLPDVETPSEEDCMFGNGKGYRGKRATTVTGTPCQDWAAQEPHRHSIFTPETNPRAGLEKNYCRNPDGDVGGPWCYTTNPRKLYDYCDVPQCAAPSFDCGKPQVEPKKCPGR

[2] = biological target: T2, agarose-immobilized hNE beads (Homo sapiens, UniProt P08246); assay: pH fractionation of display phage on agarose-immobilized hNE beads; format: binding; conditions: range of the affinity class
T2 sequence (P08246 30-267): T1 sequence (P08246 30-267)
Text: For the purpose of simultaneously assessing the affinity of a large number of different BPTI and ITI-D1 muteins, DNA sequences encoding the BPTI or ITI-D1 was incorporated into the genome of the bacteriophage M13. […] Alterations in the KuDom amino acid sequence were introduced. Each pure population of phage displaying a particular KuDom was characterized with regard to its interactions with immobilized hNE or hCG. Based on comparison to the pH elution profiles of phage displaying other KuDoms of known affinities for the particular protease, mutant KuDoms having high affinity for the target proteases were identified. Subsequently, the sequences of these mutant KuDoms were determined (typically by sequencing the corresponding DNA sequence).
To test if phage displaying the ITI-D1::III fusion protein interact strongly with the proteases human neutrophil elastase (hNE), aliquots of display phage were incubated with agarose-immobilized hNE beads (“hNE beads”). The beads were washed and bound phage eluted by pH fractionation as described in U.S. Pat. No. 5,223,409. The pHs used in the step gradient were 7.0, 6.0, 5.5, 5.0, 4.5, 4.0, 3.5, 3.0, 2.5, and 2.0. Following elution and neutralization, the various input, wash, and pH elution fractions were titered. Phage displaying ITI-D1 were compared to phage that display EpiNE-7.
To test if ITI-D1E7-display phage bind hNE beads, pH elution profiles were measured. Aliquots of EpiNE-7, MA-ITI-D1, and MA-ITI-D1E7 display phage were incubated with hNE beads for three hours at room temperature (RT). The beads were washed and phage were eluted as described in U.S. Pat. No. 5,223,409, except that only three pH elutions were performed. […] The pH elution profile of EpiNE-7 display phage is as described. MA-ITI-D1E7 phage show a broad elution maximum around pH 5. The total fraction of MA-ITI-D1E7 phage obtained on pH elution from hNE beads was about 40-fold less than that obtained using EpiNE-7 display phage.
We characterized the binding properties to hNE-beads of MA-BITI and MA-BITI-E7 display phage using the extended pH fractionation procedure described in U.S. Pat. No. 5,223,409.
The binding capacity of hNE-beads for display phage varies among preparations of beads and with age for each individual preparation of beads. Thus, it is difficult to directly compare absolute yields of phage from elutions performed at different times. For example, the fraction of MA-EpiNE7 display phage recovered from hNE-beads varies two-fold among the experiments shown in Tables 14, 16, and 17. However, the shapes of the pH elution profiles are similar. It is possible to correct somewhat for variations in binding capacity of hNE-beads by normalizing display phage yields to the total yield of MA-EpiNE7 phage recovered from the beads in a concurrent elution. When the data shown in Tables 14, 16, and 17 are so normalized, the recoveries of display phage, relative to recovered MA-EpiNE7, are shown in Table 3.
ITI-D1 derivative BITI-E7-1222 is BITI-E7 with the alteration A11T. ITI-D1 derivative BITI-E7-141 is BITI-E7 with the alterations E31Q and Q34V; phage that display the presence of these proteins are MA-BITI-E7-1222 and MA-BITI-E7-141. We determined the binding properties to hNE-beads of MA-BITI-E7-1222 and MA-BITI-E7-141 display phage using the extended pH fractionation protocol described previously. The results are in Tables 18 (for MA-BITI-E7 and MA-BITI-E7-1222) and 19 (for MA-EpiNE7 and MA-BITI-E7-141). The pH elution profiles for the MA-BITI-E7 and MA-BITI-E7-1222 phage are almost identical.
Total pfu applied to the beads are in column two. The fractions of this input pfu recovered in each pH fraction of the abbreviated pH elution protocol (pH 7.0, pH 3.5, and pH 2.0) are in the next three columns. […]

chymotrypsin = conditions: literature; cited from earlier work

Fraction of Input bound [2]: <0.005%
pH Elution Maximum [2]: >6.0 pH
Substance: ITI-D1: first Kunitz domain of human inter-α-trypsin inhibitor light chain, SEQ ID NO 016 (KEDSCQLGYSAGPCMGMTSRYFYNGTSMACETFQYGGCMGNGNNFVTEKDCLQTCRTV; disulfide (positions not given here); also: disulfides drawn as lines in table, pairing not given here)
Ki ([1]; read-out: Ki for leukocyte elastase, lower limit): > 1 nM
Ki ([1]; read-out: Ki for leukocyte elastase, upper limit): < 1000 nM
affinity for / inhibition of trypsin (trypsin): lacks affinity
affinity for plasmin (plasmin): lacks affinity
affinity for chymotrypsin (chymotrypsin): lacks affinity
